Patent publication US20210214459A1 (Novartis, published 2021)

T1: human CD73 expressed on the cell surface (human, UniProt P21589 27-549)
T1 construct: whole, on cells; also called surface CD73
T1 sequence (looked up): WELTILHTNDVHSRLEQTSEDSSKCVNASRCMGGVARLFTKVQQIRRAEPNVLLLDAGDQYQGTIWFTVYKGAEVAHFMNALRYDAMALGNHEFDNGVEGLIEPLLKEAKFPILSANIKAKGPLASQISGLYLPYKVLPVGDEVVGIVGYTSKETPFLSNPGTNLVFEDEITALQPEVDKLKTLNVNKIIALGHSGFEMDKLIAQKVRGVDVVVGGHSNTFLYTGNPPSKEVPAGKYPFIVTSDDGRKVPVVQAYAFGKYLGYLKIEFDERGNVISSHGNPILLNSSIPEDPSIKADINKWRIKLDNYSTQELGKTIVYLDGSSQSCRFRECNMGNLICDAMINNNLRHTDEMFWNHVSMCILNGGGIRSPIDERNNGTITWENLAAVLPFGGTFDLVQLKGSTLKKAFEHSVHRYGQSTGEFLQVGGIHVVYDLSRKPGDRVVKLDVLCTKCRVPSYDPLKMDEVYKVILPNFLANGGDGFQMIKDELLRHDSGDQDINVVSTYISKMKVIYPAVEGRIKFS


target: T1, human CD73 expressed on the cell surface; experiment: flow cytometry, biotinylated antibody on CD8+ T cells in human whole blood, streptavidin-APC detection
Experimental: Whole blood target engagement was assessed by flow cytometry using whole blood from healthy human donors. Briefly, biotinylated antibodies were incubated with whole blood for 30 minutes prior to red blood cell lysis and fixation. Fixed cells were stained for CD3 and CD8 to identify CD8+ T cells, and streptavidin-APC to detect biotin. After staining, the cell were washed and subjected to flow cytometry analysis.

Binder | EC50 (read off the curve) [ng/mL]
356.B (antibody, human IgG4 S228P, kappa, V domains shown, IgG4 S228P/L235E format; Heavy chain entry ends in X, wherein X is K or absent; Biotinylated in the whole blood assay) VH: QVQLQESGPGLVKPSETLSLTCTVSGGSIEGRYWSWIRQPPGKGLEWIGYIYGSGSTKYNPSLKSRVTISVDTSKNQFSLKLSSVTAADTAVYYCARESQESPYNNWFDPWGQGTLVTVSS VL: DIQMTQSPSSVSASVGDRVTITCRASQGISSWLAWYQQKPGKAPKLLIYAASSLQSGVPSRFSGSGSGTDFTLTISSLQPEDFATYYCQQGNSFPRTFGGGTKVEIKR | ~5
358.B (antibody, human IgG4 S228P, kappa, V domains shown, IgG4 S228P/L235E format; Heavy chain entry ends in X, wherein X is K or absent; Biotinylated in the whole blood assay) VH: QVQLQESGPGLVKPSETLSLTCTVSGGSISGRYWSWIRQPPGKGLEWIGYIYGTGSTNYNPSLKSRVTISVDTSKNQFSLKLSSVTAADTAVYYCARESQESPYNNWFDPWGQGTLVTVSS VL: DIQMTQSPSSVSASVGDRVTITCRASQGISSWLAWYQQKPGKAPKLLIYAASSLQSGVPSRFSGSGSGTDFTLTISSLQPEDFATYYCQQGNSFPRTFGGGTKVEIKR | ~4
350.B (antibody, human IgG4 S228P, kappa, IgG4 S228P/L235E format; Heavy chain entry ends in X, wherein X is K or absent; Biotinylated in the whole blood assay) heavy: not shown light: DIQMTQSPSSVSASVGDRVTITCRASQGISSWLAWYQQKPGKAPKLLIYAASSLQSGVPSRFSGSGSGTDFTLTISSLQPEDFATYYCQQGNSFPRTFGGGTKVEIKRTVAAPSVFIFPPSDEQLKSGTASVVCLLNNFYPREAKVQWKVDNALQSGNSQESVTEQDSKDSTYSLSSTLTLSKADYEKHKVYACEVTHQGLSSPVTKSFNRGEC | ~5
374.B (antibody, human IgG4 S228P, kappa, V domains shown, IgG4 S228P/L235E format; Heavy chain entry ends in X, wherein X is K or absent; Biotinylated in the whole blood assay) VH: EVQLLESGGGLVQPGGSLRLSCAASGFTFSYNAMSWVRQAPGKGLEWVSSISGTGGSTYYADSVKGRFTISRDNSKNTLYLQMNSLRAEDTAVYYCARGGLYGSGSYLSDFDLWGRGTLVTVSS VL: EIVLTQSPATLSVSPGERATLSCRASQSVGSNLAWYQQKPGQAPRLLIYGASTRATGIPARFSGSGSGTEFTLTISSLQSEDFAVYYCQQHNAFPYTFGGGTKVEIKR | ~6

Further lines, results first:

EC50 (read off the curve) [ng/mL] | Binder
~5 | 377.B (antibody, IgG4, V domains shown, IgG4 S228P/L235E format (.B construct); Biotinylated in the whole blood assay) VH: EVQLLESGGGLVQPGGSLRLSCAASGFTFKSYAMSWVRQAPGKGLEWVSAISGSGSYTYYADSVKGRFTISRDNSKNTLYLQMNSLRAEDTAVYYCARGGLYGSGSYLSDFDLWGRGTLVTVSS VL: EIVLTQSPATLSVSPGERATLSCRASQSVGSNLAWYQQKPGQAPRLLIYGASTRATGIPARFSGSGSGTEFTLTISSLQSEDFAVYYCQQHNAFPYTFGGGTKVEIK
~6 | 379.B (antibody, human IgG4 S228P, kappa, V domains shown, IgG4 S228P/L235E format; Heavy chain entry ends in X, wherein X is K or absent; Biotinylated in the whole blood assay) VH: EVQLLESGGGLVQPGGSLRLSCAASGFTFSRYAMSWVRQAPGKGLEWVSSISGTGGSTYYADSVKGRFTISRDNSKNTLYLQMNSLRAEDTAVYYCARGGLYGSGSYLSDFDLWGRGTLVTVSS VL: EIVLTQSPATLSVSPGERATLSCRASQSVGSNLAWYQQKPGQAPRLLIYGASTRATGIPARFSGSGSGTEFTLTISSLQSEDFAVYYCQQHNAFPYTFGGGTKVEIKR
